Laboratory results from US20230035798A1 (CAPELLA BIOSCIENCE, published 2023).

T1: membrane LIGHT R189A (human, UniProt O43557 1-240)
T1 chain: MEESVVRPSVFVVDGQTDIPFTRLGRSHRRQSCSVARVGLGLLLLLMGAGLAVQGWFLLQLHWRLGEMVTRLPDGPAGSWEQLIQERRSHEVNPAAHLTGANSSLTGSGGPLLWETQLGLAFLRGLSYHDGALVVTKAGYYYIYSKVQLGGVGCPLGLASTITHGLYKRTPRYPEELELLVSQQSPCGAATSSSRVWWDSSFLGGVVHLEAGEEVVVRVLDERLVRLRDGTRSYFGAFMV

T2: membrane LIGHT A190S (human, UniProt O43557 1-240)
T2 chain: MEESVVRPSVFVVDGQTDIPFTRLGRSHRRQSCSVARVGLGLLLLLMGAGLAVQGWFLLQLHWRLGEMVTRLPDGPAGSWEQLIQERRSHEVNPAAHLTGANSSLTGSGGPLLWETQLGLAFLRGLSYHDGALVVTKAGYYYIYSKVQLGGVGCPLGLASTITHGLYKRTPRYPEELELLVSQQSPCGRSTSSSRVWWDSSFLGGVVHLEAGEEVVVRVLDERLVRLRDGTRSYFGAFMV

T3: membrane LIGHT G188A (human, UniProt O43557 1-240)
T3 construct: full-length LIGHT with the substitution on HEK293FF cells
T3 chain: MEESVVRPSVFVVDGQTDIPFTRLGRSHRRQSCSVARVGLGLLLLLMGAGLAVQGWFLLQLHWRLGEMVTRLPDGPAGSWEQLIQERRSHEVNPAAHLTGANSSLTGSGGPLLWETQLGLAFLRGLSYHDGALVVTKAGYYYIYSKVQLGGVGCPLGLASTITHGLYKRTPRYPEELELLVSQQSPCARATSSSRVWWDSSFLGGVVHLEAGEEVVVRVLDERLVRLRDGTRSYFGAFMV

T4: membrane LIGHT T191A (human, UniProt O43557 1-240)
T4 chain: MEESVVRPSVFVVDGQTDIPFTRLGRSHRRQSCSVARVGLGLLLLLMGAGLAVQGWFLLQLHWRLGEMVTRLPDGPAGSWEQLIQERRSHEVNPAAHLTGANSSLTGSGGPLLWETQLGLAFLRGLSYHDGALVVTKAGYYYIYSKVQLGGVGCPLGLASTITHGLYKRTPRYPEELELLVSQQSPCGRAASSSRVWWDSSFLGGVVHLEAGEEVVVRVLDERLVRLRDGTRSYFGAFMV

T5: membrane LIGHT V196A (human, UniProt O43557 1-240)
T5 chain: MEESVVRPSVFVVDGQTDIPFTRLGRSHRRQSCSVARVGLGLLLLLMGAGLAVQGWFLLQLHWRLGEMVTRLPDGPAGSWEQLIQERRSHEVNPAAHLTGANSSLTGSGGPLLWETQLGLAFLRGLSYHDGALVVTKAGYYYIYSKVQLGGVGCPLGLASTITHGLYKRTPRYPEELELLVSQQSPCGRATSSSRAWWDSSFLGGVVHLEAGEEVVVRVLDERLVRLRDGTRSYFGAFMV

T6: membrane LIGHT S193A (human, UniProt O43557 1-240)
T6 chain: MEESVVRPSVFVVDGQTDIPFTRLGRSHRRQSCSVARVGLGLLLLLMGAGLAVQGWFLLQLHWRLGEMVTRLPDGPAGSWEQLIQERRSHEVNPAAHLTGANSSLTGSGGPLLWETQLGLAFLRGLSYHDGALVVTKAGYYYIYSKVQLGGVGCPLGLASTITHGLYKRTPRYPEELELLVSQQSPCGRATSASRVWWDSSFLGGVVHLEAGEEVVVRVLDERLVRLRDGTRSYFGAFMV

T7: membrane LIGHT W198A (human, UniProt O43557 1-240)
T7 chain: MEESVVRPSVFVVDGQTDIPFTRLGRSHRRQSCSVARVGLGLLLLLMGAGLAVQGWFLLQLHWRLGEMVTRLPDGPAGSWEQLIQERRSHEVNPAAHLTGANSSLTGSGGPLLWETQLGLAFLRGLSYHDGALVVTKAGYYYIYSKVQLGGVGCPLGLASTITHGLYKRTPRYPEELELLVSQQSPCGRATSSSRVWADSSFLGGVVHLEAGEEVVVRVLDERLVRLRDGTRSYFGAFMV


How the values were obtained:
Assay in all cases: flow cytometry, transfected HEK293FF, mAb at EC50
membrane LIGHT R189A = target: T1, membrane LIGHT R189A
Procedure: (§1) The day of transfection the cells were seeded in a 24-well plate at 0.6×10⁶ cells/well. Lipofectamine 2000 (ThermoFisher scientific), 3 μl, was mixed with 50 μl OptiMEM medium (GIBCO) and then added to 50 μl Opti-MEM medium containing 3 ug plasmid DNA and incubated for 20 min at RT to form DNA-Lipofectamine 2000 complexes which were then added to the HEK293FF cells and incubated at 37° C., 5% CO₂ for 24 hours. For each construct, in duplicate, 0.60×10⁶ cells/well were used in a 96 well round bottom plate. Cells were centrifuged for 3 minutes at 300×g at 4° C., the supernatant discarded and the cells washed with 150 μl FACS buffer (0.5% FBS in phosphate buffered saline). This process was repeated 3 times. […] The wells were washed 3 times as above and 50 μl/well of goat anti-human IgG FITC (1:1500 dilution in FACS buffer, SIGMA F9512-2ML) or goat anti-mouse APC (1/500 dilution in FACS buffer, BDBioscience 550826), as appropriate, was added to the wells and incubated for 30 min at 4° C. protected from the light, with shaking. The cells were then washed as above, resuspended in 100 μl of FACS buffer and binding of the antibodies to the constructs was measured using flow cytometry and a total of 10,000 cells were acquired for each sample. Controls of buffer and secondary antibody only as well as HEK293FF non transfected cells were also used.

membrane LIGHT A190S = target: T2, membrane LIGHT A190S
Procedure: as §1

membrane LIGHT G188A = target: T3, membrane LIGHT G188A
Procedure: as §1

membrane LIGHT T191A = target: T4, membrane LIGHT T191A
Procedure: as §1

[1] = target: T8, human LIGHT (TNFSF14), full length, membrane-bound (214E allele) (human, UniProt O43557 1-240)
T8 construct: also called membrane LIGHT; human membrane LIGHT
Procedure: as §1

membrane LIGHT V196A = target: T5, membrane LIGHT V196A
Procedure: as §1

membrane LIGHT S193A = target: T6, membrane LIGHT S193A
Procedure: as §1

membrane LIGHT W198A = target: T7, membrane LIGHT W198A
Procedure: as §1

Binder	binding, % of WT (membrane LIGHT R189A) [%]	binding, % of WT (membrane LIGHT A190S) [%]	binding, % of WT (membrane LIGHT G188A) [%]	binding, % of WT (membrane LIGHT T191A) [%]	binding, % of WT [1] [%]	binding, % of WT (membrane LIGHT V196A) [%]	binding, % of WT (membrane LIGHT S193A) [%]	binding, % of WT (membrane LIGHT W198A) [%]
3A07 (antibody, human IgG4, V domains shown, chimeric human IgG4 (S-to-P, L-to-E at 248), human CL; also called Parental 3A07) VH: QVQLQQSGAELVRPGAPVTLSCKASDYTFTDSEIHWVKQTPVHGLEWIGEIDPETGGTAYNQKFKGKATLTADKSSSTAYMELRSLTSEDSAVYYCSRETDYFFDYWGQGTTLTVSS VL: ENVLTQSPAIMSASPGEKVTMTCSASSSVSYMYWYQQRPGSSPRLLIYDTSNLASGVPVRFSGSGSGTSYSLTISRMEAEDAATYYCQQWSSYPLTFGSGTKLEIK	0	47	5	4	100	77	0	82
3B04 (antibody, human IgG4, V domains shown, chimeric: mouse variable domains on human IgG4 HC (S-to-P and L-to-E at 248) and human CL; also called Parental 3B04; 3B04 chimeric) VH: QVQLQQPGAELVRPGASVTLSCKASGYTFTDYEMHWVKQTPVHGLEWIGEIDPETGDTAYSQKFKGKATLTADKSSSTAYMEFRSLTSEDSAVYYCSRETDYFFDYWGQGTTLTVSS VL: DIQMTQTPASLSASVGETVTITCGASENIYGALNWYQRKQGKSPQLLIYGATNLADGMSSRFSGSGSGRQYSLKISSLHPDDFATYYCQNVLTTPWTFGGGTKLEIKR	0	68	6	2	100	80	0	81
3C10 (antibody, human IgG4, V domains shown, chimeric human IgG4 (S-to-P, L-to-E at 248), human CL; also called Parental 3C10) VH: EVQLQQSGAELVRPGASVTLSCKASDYTFTDSEIHWVKQTPVHGLEWIGEIDPETGGTAYNQKFKGKATLTADKSSSTAYMELRSLTSEDSAVYYCSRETDYFFDYWGQGTTLTVSS VL: DVVMTQTPAIMSASPGEKVTMTCSASSSVSYMYWYQQKPGSSPRLLIYDTSNLASGVPVRFSGSGSGTSYSLTISRMEAEDAATYYCQQWSSYPLTFGAGTKLELK	0	40	3	3	100	78	0	86
3D12 (antibody, human IgG4, V domains shown, chimeric: mouse variable domains on human IgG4 HC (S-to-P and L-to-E at 248) and human CL; also called Parental 3D12; 3D12 chimeric) VH: QVQLQQPGAELVRPGASVTLSCKASDYTFTDSEIHWVKQTPVHGLEWIGEIDPETGGTAYNQKFKGKATLTADKSSSTAYMELRSLTSEDSAVYYCSRETDYFFDYWGQGTTLTVSS VL: DIQMTQSPASLSASVGETVTITCGASENIYGALNWYQRKQGKSPQLLIYGATNLADGMSSRFSGSGSGRQYSLKISSLHPDDVATYYCQNVLSTPWTFGGGTKLEIKR	1	82	20	8	100	70	0	83
3E09 (antibody, V domains shown, chimeric human IgG4 (S-to-P, L-to-E at 248), human CL; also called Parental 3E09) VH: EVQLVESGGGLVKPGGSLKLSCEASGFTFSDYYMYWVRQTPEKRLEWVAAIGDGGIYTYYADTVKGRFTISRDNAKNILYLQMSSLKSNDTAMYYCARGTGDGFAYWGQGTLVTVS VL: DIVLTQSPASLAVSLGQRATISCRASESVDSYGNSFMHWYQQKPGQPPKLLIYLASNLESGVPARFSGSGSRTDFTLTIDPVEADDAATYYCQQNNEDPYTFGGGTKLEIK	1	97	35	88	100	34	0	48
2E08 (antibody, human IgG4, V domains shown, chimeric human IgG4 (S-to-P, L-to-E at 248), human CL; also called Parental 2E08) VH: QVQMKESGAELVRPGVSVKISCKGSGYTFTDYAIHWVKQSHAKTLEWIGVISTYYGDASYNQKFKGKATMTVDKSSSTAYMELARLTSDDSAIYYCARSRGEYGNYDAMDYWGQGTSVTVSS VL: DIVLTQSPASLAVSLGQRATISCKASQSVDYDGDSYMNWYQQKPGQPPKLLIYAASNLESGIPARFSGSGSGTDFTLNIHPVEEEDAATYYCQQSNEDPLTFGAGTKLELK	2	93	44	22	100	99	0	83
2B11 (antibody, human IgG4, V domains shown, chimeric human IgG4 (S-to-P, L-to-E at 248), human CL; also called Parental 2B11) VH: EVQLVESGAELVRPGVSVKISCKGSGYTFTDYAIHWVKQSHAKSLEWIGVISTYYGDASYNQKFKGKATMTVDKSSSTAYMELARLTSEDSAIYYCARSRGEYGNYDAMDYWGQGTSVTVSS VL: DIVLTQSPASLAVSLGQRATISCRASESVDSYGNSFMHWYQQKPGQPPKLLIYRASNLESGIPARFSGSGSRTDFTLTINPVEADDVATYYCQQSNEDPYTFGGGTKLEIK	0	52	3	1	100	73	0	77
